B1: anti-CD277 monoclonal antibody mAb1 (antibody, V domains shown)
VH: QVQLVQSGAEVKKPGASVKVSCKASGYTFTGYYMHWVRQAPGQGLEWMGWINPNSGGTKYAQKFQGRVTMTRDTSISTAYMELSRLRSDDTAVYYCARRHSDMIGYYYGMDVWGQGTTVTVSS
VL: DIQMTQSPSSVSASVGDRVTITCRASQGISSWLAWYQQKPGKAPKLLIYAASSLQSGVPSRFSGSGSGTDFTLTISSLQPEDFATYYCQQATDFPPTFGGGTKVEIKR
B2: anti-CD277 antibody mAb11 (antibody, human IgG1, kappa, N297A, V domains shown)
VH: QVQLVQSGAEVKKPGASVKVSCKASGYTFSNYYIHWVRQAPGQGLEWMGWINANSGGTKYAQKFQGRVTMTRDTSISTAYMELSRLRSDDTAVYYCARRHSDMIGYYYGMDVWGQGTTVTVSS
VL: DIQMTQSPSSLSASVGDRVTITCRASQSISSYLNWYQQKPGKAPKLLIYAASSLQSGVPSRFSGSGSGTDFTLTISSLQPEDFATYYCQQANTFPPTFGQGTRLEIKR
B3: anti-CD277 antibody mAb10 (antibody, human IgG1, kappa, N297A, V domains shown)
VH: QVQLVQSGAEVKKPGASVKVSCKASGYTFTNYYMHWVRQAPGQGLEWMGWINVNSGVTKYAQKFQGRVTMTRDTSISTAYMELSRLRSDDTAVYYCARRHSDMIGYYYGMDVWGQGTTVTVSS
VL: DIQMTQSPSSLSASVGDRVTITCRASQSISSYLNWYQQKPGKAPKLLIYAASSLQSGVPSRFSGSGSGTDFTLTISSLQPEDFATYYCQQANTFPPTFGQGTRLEIKR
B4: anti-CD277 antibody mAb6 (antibody, human IgG1, kappa, N297A, V domains shown)
VH: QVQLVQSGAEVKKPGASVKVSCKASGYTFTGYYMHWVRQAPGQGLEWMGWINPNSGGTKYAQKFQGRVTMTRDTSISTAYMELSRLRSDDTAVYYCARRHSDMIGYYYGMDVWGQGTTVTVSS
VL: DIQMTQSPSSLSASVGDRVTITCRASQSISLFLNWYQQKPGKAPKLLIYTASSLQSGVPSRFSGSGSGTDFTLTISSLQPEDFATYYCQQANSFPPTFGGGTKVDIKR
B5: anti-CD277 antibody mAb4 (antibody, human IgG1, kappa, N297A, V domains shown)
VH: QVQLVQSGAEVKKPGASVKVSCKASGYTFTNYYMHWVRQAPGQGLEWMGWINVNSGVTKYAQKFQGRVTMTRDTSISTAYMELSRLRSDDTAVYYCARRHSDMIGYYYGMDVWGQGTTVTVSS
VL: DIQMTQSPSSVSASVGDRVTITCRASQGISSWLAWYQQKPGKAPKLLIYAASSLQSGVPSRFSGSGSGTDFTLTISSLQPEDFATYYCQQATDFPPTFGGGTKVEIKR
B6: anti-CD277 antibody mAb3 (antibody, human IgG1, kappa, N297A, V domains shown)
VH: QVQLVQSGAEVKKPGASVKVSCKASGYTFNGYYIHWVRQAPGQGLEWMGWINSNSGGTKYAQKFQGRVTMTRDTSISTAYMELSRLRSDDTAVYYCARRHSDMIGYYYGMDVWGQGTTVTVSS
VL: DIQMTQSPSSVSASVGDRVTITCRASQGISSWLAWYQQKPGKAPKLLIYAASSLQSGVPSRFSGSGSGTDFTLTISSLQPEDFATYYCQQATDFPPTFGGGTKVEIKR
B7: anti-CD277 antibody mAb7 (antibody, human IgG1, kappa, N297A, V domains shown)
VH: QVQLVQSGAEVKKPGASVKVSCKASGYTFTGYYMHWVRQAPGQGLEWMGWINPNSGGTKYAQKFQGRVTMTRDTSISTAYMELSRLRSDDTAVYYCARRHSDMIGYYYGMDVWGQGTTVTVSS
VL: DIQMTQSPSSLSASVGDRVTITCRASQDISVYLNWYQQKPGKAPKLLIYTASSLQSGVPSRFSGSGSGTDFTLTISSLQPEDFATYYCQQANSFPPTFGGGTKVDIKR
B8: anti-CD277 antibody mAb8 (antibody, human IgG1, kappa, N297A, V domains shown)
VH: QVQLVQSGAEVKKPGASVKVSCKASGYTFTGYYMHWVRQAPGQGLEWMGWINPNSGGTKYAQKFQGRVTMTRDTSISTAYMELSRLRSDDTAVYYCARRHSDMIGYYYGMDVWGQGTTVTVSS
VL: DIQMTQSPSSLSASVGDRVTITCRASQSIDRYLNWYQQKPGKAPKLLIYAASRLQSGVPSRFSGSGSGTDFTLTISSLQPEDFATYYCQQANSFPPTFGQGTRLEIKR
B9: anti-CD277 antibody mAb5 (antibody, human IgG1, kappa, N297A, V domains shown)
VH: QVQLVQSGAEVKKPGASVKVSCKASGYTFSNYYIHWVRQAPGQGLEWMGWINANSGGTKYAQKFQGRVTMTRDTSISTAYMELSRLRSDDTAVYYCARRHSDMIGYYYGMDVWGQGTTVTVSS
VL: DIQMTQSPSSVSASVGDRVTITCRASQGISSWLAWYQQKPGKAPKLLIYAASSLQSGVPSRFSGSGSGTDFTLTISSLQPEDFATYYCQQATDFPPTFGGGTKVEIKR
B10: anti-CD277 antibody mAb9 (antibody, V domains shown)
VH: QVQLVQSGAEVKKPGASVKVSCKASGYTFNGYYIHWVRQAPGQGLEWMGWINSNSGGTKYAQKFQGRVTMTRDTSISTAYMELSRLRSDDTAVYYCARRHSDMIGYYYGMDVWGQGTTVTVSS
VL: DIQLTQSPSSLSASVGDRVTITCRASQSISSYLNWYQQKPGKVPKLLIYAASTLQSGVPSRFSGSGSGTDFTLTISSLQPEDFATYSCQQTNSFPPTFGQGTKVEIKR
B11: anti-CD277 antibody mAb2 (antibody, human IgG1, kappa, N297A, V domains shown)
VH: QVQLVQSGAEVKKPGASVKVSCKASGYTFSNYYIHWVRQAPGQGLEWMGWINANSGGTKYAQKFQGRVTMTRDTSISTAYMELSRLRSDDTAVYYCARRHSDMIGYYYGMDVWGQGTTVTVSS
VL: DIQMTQSPSSLSASVGDRVTITCRASQSIDRYLNWYQQKPGKAPKLLIYAASRLQSGVPSRFSGSGSGTDFTLTISSLQPEDFATYYCQQANSFPPTFGQGTRLEIKR

One may read the Kd as the equilibrium constant for the complex coming apart. The low end stands for a tighter complex, the high end for a looser complex. Usually koff stands for the rate constant with which the complex falls apart. A lower koff goes with slow dissociation. Usually kon stands for the rate constant with which the complex forms. Higher therefore signals faster complex formation.

human BTN3A1 ectopically expressed on K32 cells, sequence (O00481 30-513 limits assumed): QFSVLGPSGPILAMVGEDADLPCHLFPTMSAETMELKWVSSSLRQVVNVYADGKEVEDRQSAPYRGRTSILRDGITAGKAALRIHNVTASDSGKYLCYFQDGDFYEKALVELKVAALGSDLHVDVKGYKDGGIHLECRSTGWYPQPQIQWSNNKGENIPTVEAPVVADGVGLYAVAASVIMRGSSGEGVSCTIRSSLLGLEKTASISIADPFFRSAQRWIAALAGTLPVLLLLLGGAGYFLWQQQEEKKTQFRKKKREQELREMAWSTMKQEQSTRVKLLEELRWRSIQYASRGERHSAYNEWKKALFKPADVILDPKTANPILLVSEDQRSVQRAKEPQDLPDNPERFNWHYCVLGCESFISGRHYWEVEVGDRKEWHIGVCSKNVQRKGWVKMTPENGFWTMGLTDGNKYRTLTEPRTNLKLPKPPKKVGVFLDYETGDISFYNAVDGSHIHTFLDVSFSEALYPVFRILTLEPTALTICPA
T1 sequence (O00481 30-254 limits assumed): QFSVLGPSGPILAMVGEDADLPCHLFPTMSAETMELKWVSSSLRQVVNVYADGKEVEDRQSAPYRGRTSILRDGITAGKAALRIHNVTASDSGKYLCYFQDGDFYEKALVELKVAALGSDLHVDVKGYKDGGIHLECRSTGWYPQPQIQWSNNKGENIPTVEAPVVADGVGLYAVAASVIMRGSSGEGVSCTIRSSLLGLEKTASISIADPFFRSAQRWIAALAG

One experiment has as its target human BTN3A1 ectopically expressed on K32 cells (human, UniProt O00481 30-513). The experiment can be described thus: cell-based or functional assay.
For the molecule B1, the “IFN-γ release by purified CD4+ T cells stimulated with BTN-K32 cells” value was ≥ 2 fold, the “IFN-γ release by purified CD8+ T cells stimulated with BTN-K32 cells” value was ~1300 fold, the “proliferation of gated CD4+ T cells within total PBMCs co-cultured with anti-CD3/anti-CD28 coated BTN-K32 cells” value was ≥ 1.5 fold and the “proliferation of gated CD8+ T cells within total PBMCs co-cultured with anti-CD3/anti-CD28 coated BTN-K32 cells” value was ≥ 1.5 fold. The “proliferation of purified CD4+ T cells stimulated with BTN-K32 cells” value is ≥ 1.5 fold and the “proliferation of purified CD8+ T cells stimulated with BTN-K32 cells” value is ≥ 2 fold.

Another experiment concerns the target T1, human CD277 (human, UniProt O00481 30-254, limits assumed).
T1 construct: The SPR method text speaks of 'purified recombinant his tagged human CD137', apparently an error for CD277; also called BTN3A1; human CD277 polypeptides
Description: SPRi (Carterra MX96), antibody printed on chip, his-tagged antigen injected, 1:1 fit. Here is the method:
The resulting anti-CD277 antibodies from different selection rounds were plotted on kd/kₐ double log plots. Apparent association and dissociation kinetic rate constants (kₐ and kd values) were determined on an SPRi reader (MX96, Carterra) in a running buffer of PBS-C 0.01%. […] antibodies were covalently printed on a Carboxymethyldextran hydrogel 50 L chip (Xantec bioanalytics) on a CFM (Carterra). Freshly mixed activating reagents ([…] 0.4 M EDC and […] 0.1 M sulfo-NHS in H2O) were used to activate the surface of the SPR substrate for 7 minutes. Antibodies at 10 mg/ml in acetic acid buffer pH 4.5 were used for printing for 15 minutes. The printed chip was then quenched on SPRi reader (MX96, Carterra) with 1 M ethanolamine for 15 minutes. For kinetics analysis, purified recombinant his tagged human […] (0, 2.05, 5.12, 12.8, 32, 80, 200, 500 nM) was injected sequentially. For each concentration, there was 5 minutes of association followed by 10 minutes of dissociation. Data were processed and analyzed in SPR Inspection Tool and Scrubber softwares. The kinetic data were referenced with the interstitial reference spots and double-referenced to a buffer cycle, and then fit globally to a 1:1 binding model to determine their apparent association and dissociation kinetic rate constants (kₐ and kd values). The ratio kd/kₐ was used to derive the KD value of each antigen/mAb interaction, i.e. KD=kd/kₐ.
As for B1, the Kd amounted to 16.7 nM, the koff came out at 0.000384 s⁻¹ and the kon came to 23000 M⁻¹ s⁻¹.

The molecule B2 yielded a Kd of 5.13 nM, a koff of 9.36e-05 s⁻¹ and an association rate constant (kon) of 18200 M⁻¹ s⁻¹.

The molecule B3 registered a Kd of 4.69 nM, a koff of 8.03e-05 s⁻¹ and an on-rate constant (kon) of 17100 M⁻¹ s⁻¹.

B4: the Kd is 4.37 nM, the koff is 0.000118 s⁻¹ and the kon came to 27100 M⁻¹ s⁻¹.

As to B5, the Kd came out at 10.1 nM, the koff was 0.00019 s⁻¹ and the kon turned out to be 18800 M⁻¹ s⁻¹.

With B6, binding was put at a Kd of 6.71 nM, the off-rate constant (koff) amounted to 0.000121 s⁻¹ and the kon was 18100 M⁻¹ s⁻¹.

Molecule B7 yielded a Kd of 6.69 nM, a koff of 0.000159 s⁻¹ and a kon of 23700 M⁻¹ s⁻¹.

B8: binding was put at a Kd of 6.05 nM, the koff turned out to be 0.000138 s⁻¹ and the kon is 22800 M⁻¹ s⁻¹.

B9 displayed a Kd of 12.9 nM, a koff of 0.00025 s⁻¹ and a kon of 19300 M⁻¹ s⁻¹.

In the case of B10, the Kd was found to be 6.82 nM, the koff is 9.71e-05 s⁻¹ and the kon came out at 14200 M⁻¹ s⁻¹.

Molecule B11 returned a Kd of 2.68 nM, a koff of 4.89e-05 s⁻¹ and a kon of 18300 M⁻¹ s⁻¹.
